From patent publication US20220259322A1 (WASHINGTON UNIVERSITY, published 2022) come the findings set out here.

The term EC50 (read off the curve) denotes the concentration giving half of the maximal effect. Read a high EC50 (read off the curve) as weaker potency. In general, Kd refers to a measure of binding affinity in units of concentration. Read a low Kd as tighter binding.

Test [1] deals with T1, 78-kDa glucose-regulated protein (GRP78) (UniProt P11021 19-654).
T1 construct: 'peptides 86-90' in Biacore; also called BiP; HSP5a
T1 sequence (P11021 19-654 limits assumed): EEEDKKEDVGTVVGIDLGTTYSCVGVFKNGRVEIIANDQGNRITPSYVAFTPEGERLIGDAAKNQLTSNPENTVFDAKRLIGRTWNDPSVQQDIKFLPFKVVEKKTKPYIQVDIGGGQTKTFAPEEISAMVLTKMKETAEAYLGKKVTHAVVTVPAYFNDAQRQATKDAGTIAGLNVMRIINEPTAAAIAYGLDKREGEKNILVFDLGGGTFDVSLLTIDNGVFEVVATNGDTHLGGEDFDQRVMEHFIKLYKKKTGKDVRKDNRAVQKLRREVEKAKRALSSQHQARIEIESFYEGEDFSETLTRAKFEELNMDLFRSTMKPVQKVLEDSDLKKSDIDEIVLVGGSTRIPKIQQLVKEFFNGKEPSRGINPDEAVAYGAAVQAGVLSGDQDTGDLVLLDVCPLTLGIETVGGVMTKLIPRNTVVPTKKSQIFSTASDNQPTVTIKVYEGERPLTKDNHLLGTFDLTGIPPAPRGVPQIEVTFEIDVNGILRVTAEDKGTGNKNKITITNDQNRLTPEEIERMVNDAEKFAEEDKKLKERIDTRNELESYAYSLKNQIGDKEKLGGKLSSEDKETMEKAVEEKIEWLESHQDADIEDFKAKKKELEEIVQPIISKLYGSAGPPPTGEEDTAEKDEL
The experiment in a line: flow cytometry, A549 cells, gMFI minus secondary only, 4PL fit. How it is done: (§1) FIG. 7A-7B show graphs of flowcytometry data for the cell surface binding of GRP78 antibodies. […] Binding conditions: 0.1×10⁶ cells incubated with 3-fold dilutions of antibody started at 2.22 μM. Cells were washed 2× with FACS buffer. Stained with secondary antibody. Washed twice and analyzed in FACS buffer by flow cytometer FACS Canto II (BD). Geometric mean fluorescence intensity was fitted using the “One site-specific binding” in Graphpad Prism software.
(§2) A Flow cytometry assay for cell surface binding of 6F8 antibody to A549 cells was done (FIG. 7A-7B). Binding conditions: 0.1×10⁶ cells incubated with 3-fold dilutions of antibody started at 2.22 μM. Cells were washed 2× with FACS buffer. Stained with secondary antibody. Washed twice and analyzed in FACS buffer by flow cytometer FACS Canto II (BD). Geometric mean fluorescence intensity was fitted using the “One site-specific binding” in Graphpad Prism software. Graph showing the same data as in A fitted using the “Sigmoidal, 4PL, X is log(concentration)” in Graphpad Prism software (FIG. 7B).
A general note: A flow cytometer gives signals particle by particle.

The target in test [2] is T1, 78-kDa glucose-regulated protein (GRP78). The experiment in a line: flow cytometry, H460 cells, gMFI minus secondary only, one site-specific binding fit; no unit beside the number, x axis in nM. The procedure: FIG. 9A-9B are graphs showing the cell surface binding of 6F8 to H460 cells. […] Binding conditions: 0.1×10^6 cells incubated with 3-fold dilutions of antibody started at 0.7 μM. Cells were washed 2× with FACS buffer. Stained with secondary antibody. Washed twice and analyzed in FACS buffer by flow cytometer FACS Canto II (BD). Geometric mean fluorescence intensity was fitted using the One site-specific binding in Graphpad Prism software.

A further test deals with T2, peptide 88.
T2 construct: 12-mer from the C-terminus of GRP78
T2 peptide: VQPIISKLYGSA
The experiment in a line: Biacore T200, 6F8 immobilized on CM5 chip, peptide as analyte, blank-subtracted relative response. The procedure:
(§3) FIG. 5A-5B show the epitope mapping of 6F8 antibody. FIG. 5A depicts a graph of the relative response binding. Epitope mapping was performed using Biacore T200. 6F8 was immobilized on the CM5 sensor chip and peptides 86-90 (overlapping peptides in the immunogen region of 6F8) were passed as analyte. Relative binding response (response on blank channel subtracted from the 6F8 immobilized channel) of each peptide to 6F8 was analyzed using the BIAevaluation software. Cut-off for nonbinding peptides is 0 RU. […] The figure was generated using Pymol software (SEQ ID NO: 71).
(§4) Seven peptides were synthesized from the c-terminus of GRP78. Each peptide was a 12-mer with 5 amino acid overlap. The sequences of the peptides are shown above. Each of the peptide was coated in duplicate on nitrocellulose membrane and incubated with 7A9 antibody. After washing, the blot was developed using chemiluminescence. The arrows indicate positive spot, FIG. 4. 7A9 epitope: SEQ ID NO: 70 ([…] . . . EDTAE). FIG. 5A-5B Epitope mapping of 6F8 antibody was performed using Biacore T200. 6F8 was immobilized on the CM5 sensor chip and peptides 86-90 (overlapping peptides in the immunogen region of 6F8) were passed as analyte. Relative binding response (response on blank channel subtracted from the 6F8 immobilized channel) of each peptide to 6F8 was analyzed using the BIAevaluation software. Cut-off for nonbinding peptides is 0 RU. Three-dimensional model of GRP78 protein indicating the epitope sequence on the protein in magenta color. The figure was generated using Pymol software.
On the technique in general: In SPR one partner is held on a chip, and binding of the other changes the refractive index at the surface.

Test [3] has as its target T3, peptide 90.
T3 construct: 12-mer from the C-terminus of GRP78
T3 peptide: PPTGEEDTAEKD
Described as above. How it is done:
as §3, §4

The target in test [4] is T4, peptide 87.
T4 construct: 12-mer from the C-terminus of GRP78
T4 peptide: KKELEEIVQPII
Described as above. How it is done:
as §3, §4

Test [5] has as its target T5, peptide 86.
T5 construct: 12-mer from the C-terminus of GRP78
T5 peptide: IEDFKAKKKELE
The description is as above. How it is done: as §3, §4

The target in test [6] is T6, peptide 89.
T6 construct: 12-mer from the C-terminus of GRP78
T6 peptide: LYGSAGPPPTGE
The test is described as above. The procedure: as §3, §4

In another test the target is T7, C-terminal GRP78 peptide.
T7 construct: name from the legend, the sheet prints only 'GRP78 Hybridoma ELISA'
T7 sequence (P11021 other isoform, or with tags, fused parts or gaps): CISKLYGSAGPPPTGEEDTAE
The experiment in a line: ELISA on C-terminal GRP78 peptide. For orientation: An ELISA detects its analyte on a solid surface through an enzyme-linked reagent.

Test [7] deals with T1, 78-kDa glucose-regulated protein (GRP78). The experiment in a line: flow cytometry, H460 cells, gMFI minus secondary only, 4PL fit. How it is done: FIG. 9A-9B are graphs showing the cell surface binding of 6F8 to H460 cells. […] Binding conditions: 0.1×10^6 cells incubated with 3-fold dilutions of antibody started at 0.7 μM. Cells were washed 2× with FACS buffer. Stained with secondary antibody. Washed twice and analyzed in FACS buffer by flow cytometer FACS Canto II (BD). […]

Test [8] has the same target. The experiment in a line: flow cytometry, A549 cells, gMFI minus secondary only, one site-specific binding fit; no unit beside the number, x axis in nM. How it is done: as §1, §2
In test [9] the target is T3, peptide 90. The test is described as follows: peptide dot blot on nitrocellulose, chemiluminescence. The procedure:
Seven peptides were synthesized from the c-terminus of GRP78. Each peptide was a 12-mer with 5 amino acid overlap. Each of the peptide was coated in duplicate on nitrocellulose membrane and incubated with 7A9 antibody. After washing, the blot was developed using chemiluminescence. The arrows indicate positive spot.
as §4

Test [10] concerns the target T1, 78-kDa glucose-regulated protein (GRP78). The experiment in a line: flow cytometry, H460 cells, gMFI, 4PL fit; x axis of panel B is printed 'Log10 [6F8] nM' although title and legend say 7A9. The procedure: FIG. 11A-11B show flow cytometry for cell surface binding of 7A9 antibody to H460 cells. FIG. 11A is the flow cytometry assay for cell surface binding of 7A9 antibody to H460 cells. Binding conditions: 0.1×10⁶ cells incubated with 3-fold dilutions of antibody started at 1.0 μM. Cells were washed 2× with FACS buffer. Stained with secondary antibody. Washed twice and analyzed in FACS buffer by flow cytometer FACS Canto II (BD). […]

Test [11] concerns the target T4, peptide 87. The test is described as follows: Biacore T200, 7A9 immobilized on CM5 chip, peptide as analyte, blank-subtracted relative response. How it is done:
(§5) FIG. 6A depicts a graph of the relative response binding of 7A9. Epitope mapping was performed using Biacore T200. 7A9 was immobilized on the CM5 sensor chip and peptides 86-90 (overlapping peptides in the immunogen region of 7A9) were passed as analyte. Relative binding response (response on blank channel subtracted from the 7A9 immobilized channel) of each peptide to 7A9 was analyzed using the BIAevaluation software. Cut-off for nonbinding peptides is 0 RU. […] The figure was generated using Pymol software (SEQ ID NO: 70).
(§6) FIG. 6A-6B Epitope mapping of 7A9 antibody was performed using Biacore T200. 7A9 was immobilized on the CM5 sensor chip and peptides 86-90 (overlapping peptides in the immunogen region of 7A9) were passed as analyte. Relative binding response (response on blank channel subtracted from the 7A9 immobilized channel) of each peptide to 7A9 was analyzed using the BIAevaluation software. Cut-off for nonbinding peptides is 0 RU. Three-dimensional model of GRP78 protein indicating the epitope sequence on the protein in red color. The figure was generated using Pymol software.

The target in test [12] is T5, peptide 86. The description is as above. How it is done: as §5, §6
The target of test [13] is T6, peptide 89. The test is described as above. The procedure: as §5, §6
Test [14] deals with T1, 78-kDa glucose-regulated protein (GRP78). The test is described as follows: flow cytometry, H460 cells, gMFI, one site-specific binding fit; no unit beside the number, x axis in nM; all points lie at gMFI about 1000-1400, so the fit rests on no point of the rising part. How it is done: FIG. 11A-11B show flow cytometry for cell surface binding of 7A9 antibody to H460 cells. FIG. 11A is the flow cytometry assay for cell surface binding of 7A9 antibody to H460 cells. Binding conditions: 0.1×10⁶ cells incubated with 3-fold dilutions of antibody started at 1.0 μM. Cells were washed 2× with FACS buffer. Stained with secondary antibody. Washed twice and analyzed in FACS buffer by flow cytometer FACS Canto II (BD). Geometric mean fluorescence intensity was fitted using the One site-specific binding in Graphpad Prism software.

B1: 6F8 anti-GRP78 mouse monoclonal antibody (antibody, V domains shown)
VH: EVQLVESGGGLVRPKGSLKLSCAASGFTLNTSAMNWVRQVPGKGLEWVGRIRSKNYNYATYYADSVKDRFTIFRDDSQNMLYLQMNNLKTEDTAMYYCVRPPGFAYWGQGTLVTVSA
VL: DIQMTQSPSSLSASLGERVSLTCRTSQEISGHLSWLQQKPDGTIKRLIYAASSLDSGVPKRFSGSRSGSDYSLTISSLESEDFADYYCLQYSSYPYTFGGGTKLEIK
For the molecule B1, the figures for the “EC50 (read off the curve)” value (in test [1]; in the test with C-terminal GRP78 peptide; in test [7]) were roughly 50 nM, roughly 1000 nM and roughly 100 nM, respectively. Further, the Kd in test [2] was 35.8 nM; in [8] it was 16.4 nM. Moreover, the binding result with peptide 88 is on record as “no binding”; with peptide 90 [3] it was “binds”; in the test with peptide 87 [4], “no binding”; with peptide 86 [5], “no binding”; with peptide 89 [6] it was “no binding”.

B2: 7A9 anti-GRP78 mouse monoclonal antibody (antibody, V domains shown)
VH: EVQLVETGGGLVQPKGSLKLSCAVSGITFNINAMNWVRQAPGKGLEWVARIRSKSNNYATYYADSVKDRFTISRDDSQSMLYLQMNNLKTEDTAMYYCVRDITRAGYFDVWGAGTTVTVSS
VL: QIVLTQSPAIMSASPGEKVTITCSASSSVIYMHWFQQKPGTSPKLWIYSTSNLASGVPARFSGSGSGTSYSLTISRMEAEDAATYYCQQRSSYPLTFGAGTKLELK
On to B2, for which the binding result with peptide 90 [9] was “binds”; in the test with peptide 87 [11] it was “no binding”; with peptide 86 [12], “no binding”; in the test with peptide 89 [13] it was “no binding”. For the same molecule, the “EC50 (read off the curve)” value in [10] was roughly 40 nM. In addition, in [14], the Kd was determined as 0.108 nM.
